# Results as given in patent publication US20180155425A1 (ZONHON BIOPHARMA INSTITUTE, published 2018).
# B1: ZHB BsAb-4 (bispecific antibody)
# chain: DVQLVQSGAEVKKPGASVKVSCKASGYTFTRYTMHWVRQAPGQGLEWIGYINPSRGYTNYADSVKGRFTITTDKSTSTAYMELSSLRSEDTATYYCARYYDDHYCLDYWGQGTTVTVSSGEGTSTGSGGSGGSGGADDIVLTQSPATLSLSPGERATLSCRASQSVSYMNWYQQKPGKAPKRWIYDTSKVASGVPARFSGSGSGTDYSLTINSLEAEDAATYYCQQWSSNPLTFGGGTKVEIKSGGGGSDILLTQSPSSLSATPGERATITCRASQGIRNNLNWYQQKPGQAPRLLIYYSSNLQSGVPSRFSGSGSGTDFTLTISRLQPEDVAAYYCQQSIKLPFTFGSGTKVEIKGGGGSGGGGSGGGGSEVQLVESGAGVKQPGGTLRLTCTASGFSLTTYGVHWVRQAPGKGLEWVGVIWGDGRTDYDAAFMSRVTISKDTSKSTVYLQMNSLRAEDTAVYYCMRNRHDWFDYWGQGTTVTVSS
# notes: Single-chain tandem scFv; detection on cells used an anti-His-tag antibody; also called anti-CD26×anti-CD3 bispecific antibody
# B2: ZHB BsAb-3 (bispecific antibody)
# chain: DVQLVQSGAEVKKPGASVKVSCKASGYTFTRYTMHWVRQAPGQGLEWIGYINPSRGYTNYADSVKGRFTITTDKSTSTAYMELSSLRSEDTATYYCARYYDDHYCLDYWGQGTTVTVSSGEGTSTGSGGSGGSGGADDIVLTQSPATLSLSPGERATLSCRASQSVSYMNWYQQKPGKAPKRWIYDTSKVASGVPARFSGSGSGTDYSLTINSLEAEDAATYYCQQWSSNPLTFGGGTKVEIKSGGGGSEVQLVESGAGVKQPGGTLRLTCTASGFSLTTYGVHWVRQAPGKGLEWVGVIWGDGRTDYDAAFMSRVTISKDTSKSTVYLQMNSLRAEDTAVYYCMRNRHDWFDYWGQGTTVTVSSGGGGSGGGGSGGGGSDILLTQSPSSLSATPGERATITCRASQGIRNNLNWYQQKPGQAPRLLIYYSSNLQSGVPSRFSGSGSGTDFTLTISRLQPEDVAAYYCQQSIKLPFTFGSGTKVEIK
# notes: as for B1
# B3: ZHB BsAb-1 (bispecific antibody)
# chain: EVQLVESGAGVKQPGGTLRLTCTASGFSLTTYGVHWVRQAPGKGLEWVGVIWGDGRTDYDAAFMSRVTISKDTSKSTVYLQMNSLRAEDTAVYYCMRNRHDWFDYWGQGTTVTVSSGGGGSGGGGSGGGGSDILLTQSPSSLSATPGERATITCRASQGIRNNLNWYQQKPGQAPRLLIYYSSNLQSGVPSRFSGSGSGTDFTLTISRLQPEDVAAYYCQQSIKLPFTFGSGTKVEIKSGGGGSDVQLVQSGAEVKKPGASVKVSCKASGYTFTRYTMHWVRQAPGQGLEWIGYINPSRGYTNYADSVKGRFTITTDKSTSTAYMELSSLRSEDTATYYCARYYDDHYCLDYWGQGTTVTVSSGEGTSTGSGGSGGSGGADDIVLTQSPATLSLSPGERATLSCRASQSVSYMNWYQQKPGKAPKRWIYDTSKVASGVPARFSGSGSGTDYSLTINSLEAEDAATYYCQQWSSNPLTFGGGTKVEIK
# notes: detection on cells used an anti-His-tag antibody; also called anti-CD26×anti-CD3 bispecific antibody
# B4: ZHB BsAb-2 (bispecific antibody)
# chain: DILLTQSPSSLSATPGERATITCRASQGIRNNLNWYQQKPGQAPRLLIYYSSNLQSGVPSRFSGSGSGTDFTLTISRLQPEDVAAYYCQQSIKLPFTFGSGTKVEIKGGGGSGGGGSGGGGSEVQLVESGAGVKQPGGTLRLTCTASGFSLTTYGVHWVRQAPGKGLEWVGVIWGDGRTDYDAAFMSRVTISKDTSKSTVYLQMNSLRAEDTAVYYCMRNRHDWFDYWGQGTTVTVSSGGGGSDVQLVQSGAEVKKPGASVKVSCKASGYTFTRYTMHWVRQAPGQGLEWIGYINPSRGYTNYADSVKGRFTITTDKSTSTAYMELSSLRSEDTATYYCARYYDDHYCLDYWGQGTTVTVSSGEGTSTGSGGSGGSGGADDIVLTQSPATLSLSPGERATLSCRASQSVSYMNWYQQKPGKAPKRWIYDTSKVASGVPARFSGSGSGTDYSLTINSLEAEDAATYYCQQWSSNPLTFGGGTKVEIK
# notes: as for B1
# B5: anti-CD26-scFv (scFv)
# scFv: EVQLVESGAGVKQPGGTLRLTCTASGFSLTTYGVHWVRQAPGKGLEWVGVIWGDGRTDYDAAFMSRVTISKDTSKSTVYLQMNSLRAEDTAVYYCMRNRHDWFDYWGQGTTVTVSSGGGGSGGGGSGGGGSDILLTQSPSSLSATPGERATITCRASQGIRNNLNWYQQKPGQAPRLLIYYSSNLQSGVPSRFSGSGSGTDFTLTISRLQPEDVAAYYCQQSIKLPFTFGSGTKVEIKHHHHHH
# notes: Expressed in Pichia pastoris; also called anti-CD26 single-chain antibody; parent single-chain antibody
# Target: T1, human CD26 on the surfaces of tumor cells (human, UniProt P27487 1-766)
# T1 construct: whole, on cells; The background section says CD26 often exists as a homodimer of 766-residue monomers; also called CD26 molecules on the surfaces of the tumor cells
# Assay: flow cytometry on NCI-H2452 cells, anti-His-tag-Alexa Fluor 488 detection
# Experimental: (§1) Test method: 786-0 and NCI-H2452 cells in the logarithmic growth phase were trypsinized. The cells were harvested by centrifugation at 1000 rpm for 5 min, and washed twice with PBS buffer. One portion of 1.0×10⁶ cells was re-suspended in 250 μL PBS butler, and BsAb1, BsAb2, BsAb3, and BsAb4 were respectively added to give a final concentration of […] and incubated at room temperature for 1 hr. After incubation, the cells were washed twice with PBS buffer, and then 250 μL of Anti--His-tag-Alexa Fluor 488 antibody that was 1:2000 diluted was added and incubated at room temperature for 1 hr. After incubation, the cells were washed thrice with PBS, re-suspended in 300 μL PBS buffer, and detected by flow cytometer.
row,Binder,Binding rate [%]
1,B1,1.4
2,B2,0.7
3,B3,1.1
4,B4,71.8

# Target: T1, human CD26 on the surfaces of tumor …
# Assay: flow cytometry on PC-3 cells, anti-His-tag-Alexa Fluor 488 detection
row,Binder,Binding rate [%]
1,B1,62.9
2,B2,0.1
3,B3,1.2
4,B4,42.8

# Target: T1, human CD26 on the surfaces of tumor …
# Assay: flow cytometry on 786-0 cells, anti-His-tag-Alexa Fluor 488 detection
# Experimental: as §1
row,Binder,Binding rate [%]
1,B1,98
2,B2,9.4
3,B3,41.1
4,B4,99.6

# Target: T1, human CD26 on the surfaces of tumor …
# Assay: cell-based or functional assay
Binder,"Lysis rate (%) of COLO205 cells by PBMC, antibody at 10 ng/mL [%]","Lysis rate (%) of Caki-1 cells by PBMC, antibody at 10 ng/mL [%]","Lysis rate (%) of NCI-H2452 cells by PBMC, antibody at 10 ng/mL [%]","Lysis rate (%) of PC-3 cells by PBMC, antibody at 10 ng/mL [%]"
B1,5.4,0.9,0.5,53.1
B2,5.3,0.8,0.7,1.7
B3,1.7,0.3,0.2,45.4
B4,17,26.5,32.3,39.6

# Target: T1, human CD26 on the surfaces of tumor …
# Assay: flow cytometry on Caki-1 cells, anti-His-tag-Alexa Fluor 488 detection
row,Binder,Binding rate [%]
1,B1,1.1
2,B2,1.2
3,B3,1.1
4,B4,49.9

# Target: T2, human CD3 on the surfaces of Jurkat cells / T cells (human, UniProt P07766 23-207; P09693 23-182; P04234 22-171)
# T2 construct: whole, on cells; CD3 is endogenous on Jurkat cells and on enriched human T cells; also called CD3 molecules on the surfaces of Jurkat cells
# Assay: flow cytometry on Jurkat (CD3+) cells, antibody at 10 µg/mL, anti-His-tag-Alexa Fluor 488 detection
# Experimental: Test method: Jurkat cells in the logarithmic growth phase were harvested by centrifugation at 1000 rpm for 5 min, and washed twice with PBS buffer. One portion of 1.0×10⁶ cells was re-suspended in 250 μL PBS buffer, and BsAb1, BsAb2, BsAb3, and BsAb4 were respectively added to give a final concentration of 10 μg/mL and incubated at room temperature for 1 hour. After incubation, the cells were washed twice with PBS, and then 250 μL of Anti-His-tag-Alexa Fluor 488 antibody that was 1:2000 diluted was added and incubated at room temperature for 1 hour. After incubation, the cells were washed thrice with PBS buffer, re-suspended in 300 μL PBS, and detected by flow cytometer.
row,Binder,binding rate to Jurkat cells [%]
1,B1,56.5
2,B2,0.2
3,B3,0.1
4,B4,92

# Target: T1, human CD26 on the surfaces of tumor …
# Assay: cell-based or functional assay
# Remark: another data set of the same source
row,Binder,IC50 of T cell-mediated killing of 786-0 cells [ng/mL]
1,B1,3.1
2,B4,1.39

# Target: T1, human CD26 on the surfaces of tumor …
# Assay: cell-based or functional assay
# Remark: another data set of the same source
Binder,"Lysis rate (%) of 786-0 cells by T cells, antibody at 10^2 pg/mL [%]","Lysis rate (%) of 786-0 cells by T cells, antibody at 10^3 pg/mL [%]","Lysis rate (%) of 786-0 cells by T cells, antibody at 10^4 pg/mL [%]","Lysis rate (%) of 786-0 cells by T cells, antibody at 10^5 pg/mL [%]"
B1,24.3,38.8,64.8,75.4
B5,10.8,9.6,10.9,7.5
B4,21.8,59.2,69.6,76.3

# Target: T1, human CD26 on the surfaces of tumor …
# Assay: flow cytometry on COLO205 cells, anti-His-tag-Alexa Fluor 488 detection
row,Binder,Binding rate [%]
1,B1,0.2
2,B2,0.4
3,B3,0.1
4,B4,14

# Target: T1, human CD26 on the surfaces of tumor …
# Assay: cell-based or functional assay
# Remark: another data set of the same source
row,Binder,"Lysis (%) of 786-0 cells by PBMC, antibody at 10 ng/mL [%]"
1,B1,25.5
2,B2,4.3
3,B3,15.9
4,B5,4.1
5,B4,27.4

# Target: T3, CD26 protein (UniProt P27487 39-766, limits assumed)
# T3 construct: Soluble CD26 protein in the biolayer interferometry assay on AR2G sensors
# Assay: BLI, Fortebio Qke, AR2G amine reactive biosensor
# Excerpt: Test method: The affinities of the bispecific antibodies to CD26 protein were detected by using the Molecular Interaction Instrument Fortebio Qke, following the instruction of operation of immersive readable Amine Reactive 2nd Generation Biosensor (Fortebio, AR2G).
row,Binder,Kd [nM]
1,B1,1.97
2,B2,10
3,B3,9.29
4,B5,1
5,B4,3.44
